Results published in the supplement of paper PMC9732359.
± gives the uncertainty stated by the source.

Assay: protein stability index of a GFP-peptide fusion (yeast GPS) (PSI 1-4); higher = more stable; sorted into four equal gates, so the index is relative within each strain
Outline: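 Yeast carrying a pooled library were grown to mid-log phase in leucine-free medium. Each library plasmid expresses Cherry and has a tiled 17-residue yeast protein peptide fused downstream of GFP. Cells were sorted into four equal gates by GFP/Cherry ratio, and plasmids from each gate were PCR-amplified, Illumina-sequenced and assigned to strains by barcode. Summing, across gates, the read frequency times the gate number gave each peptide's protein stability index.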

Sequence | protein stability index (doa10∆) | protein stability index (pdr5∆) | protein stability index (san1∆) | protein stability index (ubr1∆)
IAFDDLIENKIQNKKIQ [RPN8] | 2.54 ± 0.07 | 2.25 ± 0.081 | 2.57 ± 0.066 | 2.71 ± 0.05
HDLLQIIHFHSHPEKRM [SSN3] | 2.62 ± 0.053 | 2.71 ± 0.053 | 2.65 ± 0.046 | 2.79 ± 0.039
SAAMSIDKLSDVVMKAT [PRP8] | 2.46 ± 0.048 | 2.6 ± 0.046 | 2.45 ± 0.047 | 2.37 ± 0.042
SLINSHLKILASSNFPF [RPC82] | 2.64 ± 0.066 | 2.3 ± 0.075 | 2.28 ± 0.073 | 2.02 ± 0.042
IIDHIPGHSLLLSIKLP [SNF5] | 1.96 ± 0.066 | 1.61 ± 0.045 | 1.53 ± 0.11 | 2.23 ± 0.04
AAAAVCEKWAASSWAKK [RPL14A] | 2.52 ± 0.052 | 3.08 ± 0.089 | 2.56 ± 0.056 | 2.68 ± 0.058
SQKAKLMTFNAETKSYD [YLR335W/NUP2] | 2.55 ± 0.065 | 2.27 ± 0.046 | 2.3 ± 0.057 | 2.92 ± 0.053
RSSYMLELVNTPLTENI [YCG1] | 3.11 ± 0.096 | 3.18 ± 0.082 | 3.04 ± 0.073 | 2.91 ± 0.084
NNNEDNENNNNSSEKNN [MED2] | 3.11 ± 0.052 | 3.37 ± 0.043 | 3.2 ± 0.039 | 3.15 ± 0.048
IVNHEQDLPKINDKRAN [SRB4] | 3.28 ± 0.19 | 3.21 ± 0.11 | 2.96 ± 0.098 | 3.08 ± 0.08
GILLLDSLIQLANRSKE [YJL039C/NUP192] | 1.86 ± 0.064 | 1.74 ± 0.059 | 1.64 ± 0.099 | 1.97 ± 0.051
PEYFESPLQSSKSKQSF [YMR129W/POM152] | 2.78 ± 0.12 | 2.8 ± 0.08 | 2.91 ± 0.084 | 2.96 ± 0.076
SVINNYLREDQMIDTSI [NUT1] | 2.99 ± 0.074 | 3.32 ± 0.1 | 3.32 ± 0.083 | 2.84 ± 0.082
ISAEDRADTDLAMNDDD [SNF2] | 3.44 ± 0.23 | 3.45 ± 0.14 | 3.35 ± 0.069 | 3.32 ± 0.085
AQDEVFSLAFSPNRYWL [ASC1] | 2.78 ± 0.24 | 2.75 ± 0.17 | 2.54 ± 0.18 | 2.38 ± 0.19
KSFISKLLGIGDIESLF [SRP54] | 1.56 ± 0.061 | 1.82 ± 0.077 | 2.2 ± 0.12 | 2.1 ± 0.12
GLNDLVEQYKFRETTHS [BRR2] | 3.16 ± 0.091 | 3.03 ± 0.074 | 2.84 ± 0.082 | 3.1 ± 0.061
DQRDELLEQKKSIINSQ [ITC1] | 3.08 ± 0.085 | 3.1 ± 0.075 | 3.11 ± 0.062 | 3.19 ± 0.068
ILGMLSLADNEIALKGL [YCS4] | 2.42 ± 0.053 | 2.08 ± 0.068 | 2.11 ± 0.089 | 2.25 ± 0.056
IYVHVRRSTPFSKIAEY [ESC2] | 2.16 ± 0.053 | 2.33 ± 0.049 | 2.52 ± 0.05 | 2.52 ± 0.047
EEIVVVASADYESQTFS [PRP8] | 3.14 ± 0.069 | 3.5 ± 0.095 | 3.24 ± 0.054 | 3.3 ± 0.057
LTGNQLPTPTPTEMEPD [SWI1] | 2.67 ± 0.051 | 2.92 ± 0.052 | 2.51 ± 0.062 | 2.85 ± 0.03
EKIFHYGHVFLGITGLA [PUP3] | 1.17 ± 0.086 | 1.34 ± 0.094 | 1.15 ± 0.18 | 1.05 ± 0.074

Sequence | protein stability index (doa10∆) | protein stability index (pdr5∆) | protein stability index (san1∆) | protein stability index (ubr1∆)
TQTESKKEENETISNVA [SNF2] | 3.07 ± 0.056 | 3.1 ± 0.048 | 2.98 ± 0.045 | 3.19 ± 0.038
FKCQEKDKGVYVVTSDE [SIR2] | 2.94 ± 0.076 | 3.08 ± 0.085 | 3.27 ± 0.072 | 3.34 ± 0.054
RDKVCKQINEARDEILP [PGD1] | 1.77 ± 0.091 | 1.6 ± 0.14 | 1.5 ± 0.16 | –
KNGLGLNFSTTAPANTT [MED2] | 2.16 ± 0.07 | 2.38 ± 0.047 | 2.15 ± 0.072 | 2.06 ± 0.042
INGWELTKAQKYLEQVL [RPL17A] | 3.34 ± 0.06 | 3.44 ± 0.053 | 3.4 ± 0.036 | 3.36 ± 0.046
TYPAGFMDVITLDATNE [RPS4A] | 2.71 ± 0.085 | 3.11 ± 0.086 | 3.11 ± 0.062 | 2.95 ± 0.063
HHELIKVKHDSQPFIKF [SSN2] | 3.14 ± 0.085 | 2.71 ± 0.099 | 2.86 ± 0.11 | 2.88 ± 0.06
IKTQQHILPEVPPVENF [TAF14] | 2.21 ± 0.1 | 2.42 ± 0.082 | 2.89 ± 0.086 | 2.95 ± 0.073
ATFSVSQASSDLGETFR [CSL4] | 3.04 ± 0.086 | 2.64 ± 0.064 | 3.23 ± 0.065 | 2.57 ± 0.041
PSYYGVRDTSPHGISVF [BRR2] | 1.35 ± 0.069 | 1.41 ± 0.057 | 2.29 ± 0.077 | 1.94 ± 0.045
KAFKNNSSKYYINEKES [SMC4] | 2.54 ± 0.12 | 2.42 ± 0.07 | 2.27 ± 0.083 | 1.72 ± 0.064
EVEEDDEDDDQPMISPD [SWI3] | 3.21 ± 0.099 | 3.45 ± 0.056 | 3.33 ± 0.046 | 3.15 ± 0.06
TNAKIPQFDSTQPKSSS [SSN3] | 3.03 ± 0.042 | 3.01 ± 0.044 | 3.09 ± 0.039 | 2.98 ± 0.032
NDLDYDLIADTITNSSS [YML103C/NUP188] | 2.9 ± 0.061 | 3.06 ± 0.067 | 2.99 ± 0.036 | 3.02 ± 0.048
SYDVENVNSRNQLVEPN [SRB5] | 3.21 ± 0.12 | 3.26 ± 0.14 | 3.42 ± 0.13 | 3.34 ± 0.12
DIPGVRFKVVKVSGVSL [RPS23A] | 1.62 ± 0.084 | 1.11 ± 0.1 | 1.25 ± 0.29 | 1.06 ± 0.079
VENWIIDDKGVLMERKD [ITC1] | 1.69 ± 0.099 | 2.98 ± 0.18 | 3.09 ± 0.15 | 2.7 ± 0.1
MSLINDAMVTRTPVIIS [SMD2] | 1.26 ± 0.07 | 1.7 ± 0.066 | 1.47 ± 0.12 | 1.52 ± 0.085
DPNLELDQVGVPKSIAK [RPO21] | 3.48 ± 0.23 | 3.18 ± 0.14 | 2.44 ± 0.25 | 3.11 ± 0.16
LRSKLFQFKLLQSNSKL [SMC4] | 1.84 ± 0.056 | 1.79 ± 0.053 | 1.59 ± 0.079 | 2.23 ± 0.037
FILTIATAFLGYCCVYG [COB] | 1.66 ± 0.098 | 1.27 ± 0.11 | 1.22 ± 0.22 | 1.36 ± 0.072
NEKSQAEQEKAKNIISN [LRP1] | 2.59 ± 0.092 | 2.83 ± 0.12 | 2.86 ± 0.078 | 2.62 ± 0.17
